Non-standard residues stand in square brackets, D forms with d. No end group written: not given here. d(pGlu) = O=C1CC[C@H](C(=O)O)N1; NMeL = CN[C@@H](CC(C)C)C(=O)O

The target of experiment [1] is human gonadotropin-releasing hormone receptor (GnRH-R), clone LC27-4 (human).
The target is the same in experiment [2]. As to the kind of experiment: Kd derived by the filing from the IC50 of inhibition of GnRH-stimulated inositol phosphate production in COS-1 cells expressing the human GnRH-R.
Experiment [3] addresses T1, mouse gonadotropin-releasing hormone receptor (GnRH-R), clone WZ25 (mouse).
T1 chain: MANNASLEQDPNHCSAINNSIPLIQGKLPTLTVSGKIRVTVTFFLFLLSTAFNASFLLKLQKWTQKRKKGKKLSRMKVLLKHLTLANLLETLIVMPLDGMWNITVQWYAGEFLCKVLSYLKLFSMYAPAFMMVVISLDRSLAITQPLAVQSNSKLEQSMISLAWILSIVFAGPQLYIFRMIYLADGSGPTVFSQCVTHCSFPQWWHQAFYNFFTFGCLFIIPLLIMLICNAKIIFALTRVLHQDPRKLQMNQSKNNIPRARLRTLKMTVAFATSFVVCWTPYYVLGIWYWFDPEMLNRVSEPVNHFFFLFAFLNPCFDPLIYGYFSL
As to the kind of experiment: displacement of 125I-GnRH-A by GnRH, membranes of WZ25 RNA-injected oocytes. As for the experimental part: (§1) For membrane preparation, 500 oocytes were each injected with 2.5 ng synthetic WZ25 RNA. After 48 hours, oocyte membranes were prepared as described (Kobilka et al., 1987, J. Biol. Chem. 262: 15796–15802) and resuspended in binding buffer containing 10 mM HEPES, 1 mM EDTA, and 0.1% bovine serum albumin to give a final concentration of 20 oocytes/ml.
(§2) To further characterize the receptor encoded by this cDNA clone, radioligand binding assays were performed on membranes purified from oocytes injected with the WZ25 RNA transcript.
(Displacement assays read how much labelled ligand stays bound in the presence of the test substance.)

The target in experiment [4] is T2, human gonadotropin-releasing hormone receptor (GnRH-R), clone LC27-4 (human).
T2 chain: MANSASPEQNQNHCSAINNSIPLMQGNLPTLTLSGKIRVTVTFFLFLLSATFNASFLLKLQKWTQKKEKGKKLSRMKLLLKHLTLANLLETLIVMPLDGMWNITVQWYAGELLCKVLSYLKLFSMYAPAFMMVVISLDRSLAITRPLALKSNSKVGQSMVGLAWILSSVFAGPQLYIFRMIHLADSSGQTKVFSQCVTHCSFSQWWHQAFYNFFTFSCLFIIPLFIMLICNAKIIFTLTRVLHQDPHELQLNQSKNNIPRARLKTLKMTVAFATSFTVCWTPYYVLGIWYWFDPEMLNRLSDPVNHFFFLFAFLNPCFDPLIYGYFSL
As to the kind of experiment: displacement of 125I-GnRH-A, membranes of COS-1 cells transfected with the human GnRH-R. As for the experimental part:
(§3) For studies on inositol phosphate production, 1.8 ×10^5 cells/well (12-well plates) were transfected with 1.5 μg DNA. Cells were assayed 48 hours after transfection.
Cell membranes were prepared from transfected cells with a single centrifugation step as described for rat pituitaries (Millar et al., 1989, J. Biol. Chem. 264:21007–21013).

Experiment [5] has as its target T2, human gonadotropin-releasing hormone …. As to the kind of experiment: Kd derived by the filing from the IC50 of inhibition of GnRH-stimulated inositol phosphate production in COS-1 cells expressing the human GnRH-R. The method, then:
as §3

Experiment [6] deals with T1, mouse gonadotropin-releasing hormone …. Briefly: displacement of 125I-GnRH-A by GnRH-A, membranes of WZ25 RNA-injected oocytes. The method, then:
as §1, §2

For experiment [7] the target is unchanged. Briefly: displacement of 125I-GnRH-A by GnRH-A, αT3-1 cell membranes (endogenous mouse receptor).

One may read the Kd as the concentration at which binding is half-saturated. “antagonist 13: [Ac-D-NaI1,D-α-4-ClPhe2, D-Pal3,D-Arg6, D-Ala10]GnRH (from UniProt P01148) (peptide)” gave an IC50 of inhibition of GnRH-stimulated (10-8 M) inositol phosphate production in COS-1 cells transfected with pSV2A-human GnRH-R in experiment [1] of 6.7e-09 M. Moreover, the Kd in experiment [2] was determined as 0.21 nM.
In experiment [1], “gonadotropin-releasing hormone (GnRH) (from UniProt P01148) (peptide)” returned an EC50 of inositol phosphate production in COS-1 cells transfected with pSV2A-human GnRH-R of 3 nM and an inositol phosphate production in COS-1 cells transfected with pSV2A-human GnRH-R of 8 fold.
With QHWSYGLRPG [gonadotropin-releasing hormone (GnRH)], in experiment [3], the binding result is “binds”.
As for [d(pGlu)][dF][dW]SY[dW]LRPG (ends and bridges not checked) [antagonist 5: [D-pGlu1,D-Phe2,D-Trp3,6]GnRH], the IC50 of inhibition of GnRH-stimulated (10-8 M) inositol phosphate production in COS-1 cells transfected with pSV2A-human GnRH-R in experiment [1] stood at 1.05e-07 M. The Kd in experiment [4] worked out at 8.4 nM; in experiment [5], 3.6 nM.
On to QHWSY[dA][NMeL]RP-NHEt (ends and bridges not checked; also: 125I label on the tracer form) [[D-Ala6, NαMe-Leu7, Pro9-NHEt]GnRH (GnRH-A)], for which the Kd came out at 4.5 nM in experiment [6], 2.9 nM in experiment [7] and 0.97 nM in experiment [4].
